Among the data in patent US10450368 (DUKE UNIVERSITY, dated 2019) are AtheNA signal, Kd and koff values, retold here.

Usually Kd stands for the constant that tells how readily two partners part at equilibrium. For orientation: koff means a measure of how fast the partners let go of each other. A high value points to a short-lived complex.

Assay [1] deals with T1, RNP (ribonucleoprotein).
T1 construct: Protein-RNA complex
Description: AtheNA, Ab 6.25 ug/ml.
Description: AtheNA Multi-Lyte ANA Plus Test System is one such assay. This is luminex-based assay, which is also used to screen patient sera.

Assay [2] has as its target T2, HIV-1 CH505 transmitted/founder gp120 Env (HIV-1).
T2 construct: domain: gp120; also called CH505.TF gp120; CH505 TF gp120 Env
The experiment in a line: SPR, antibody captured on anti-human Ig Fc, gp120 injected. (In general: In SPR one partner is held on a chip, and binding of the other changes the refractive index at the surface.)

Another assay deals with T3, Scl-70 (UniProt P11387 1-765).
T3 sequence: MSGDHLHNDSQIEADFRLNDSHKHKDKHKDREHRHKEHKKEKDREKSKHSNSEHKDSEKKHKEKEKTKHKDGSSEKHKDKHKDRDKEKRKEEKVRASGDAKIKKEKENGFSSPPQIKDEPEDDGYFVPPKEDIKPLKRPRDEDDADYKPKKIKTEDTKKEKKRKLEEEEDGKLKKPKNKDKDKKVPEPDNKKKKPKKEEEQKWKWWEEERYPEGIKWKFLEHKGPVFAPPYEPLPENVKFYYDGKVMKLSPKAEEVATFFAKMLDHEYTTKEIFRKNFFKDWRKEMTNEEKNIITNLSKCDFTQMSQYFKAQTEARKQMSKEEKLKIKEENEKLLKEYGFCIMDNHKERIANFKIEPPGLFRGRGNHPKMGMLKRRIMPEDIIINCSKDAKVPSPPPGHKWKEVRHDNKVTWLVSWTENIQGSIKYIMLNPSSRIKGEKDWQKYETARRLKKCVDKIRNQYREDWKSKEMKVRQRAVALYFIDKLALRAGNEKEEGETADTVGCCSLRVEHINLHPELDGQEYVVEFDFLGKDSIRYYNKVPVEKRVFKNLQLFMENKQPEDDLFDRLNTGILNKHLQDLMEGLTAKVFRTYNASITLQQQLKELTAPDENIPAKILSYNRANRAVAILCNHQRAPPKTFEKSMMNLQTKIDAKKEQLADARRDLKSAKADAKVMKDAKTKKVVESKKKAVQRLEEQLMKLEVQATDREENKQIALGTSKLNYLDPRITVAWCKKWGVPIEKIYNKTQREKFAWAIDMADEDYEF
The experiment in a line: AtheNA, Ab 6.25 ug/ml.

The target in a further assay is T4, Histones.
T4 construct: Mixture of proteins
Description: AtheNA, Ab 6.25 ug/ml.

A further assay has as its target T5, Centromere B (UniProt P07199 1-599).
T5 construct: also called Cent B
T5 sequence: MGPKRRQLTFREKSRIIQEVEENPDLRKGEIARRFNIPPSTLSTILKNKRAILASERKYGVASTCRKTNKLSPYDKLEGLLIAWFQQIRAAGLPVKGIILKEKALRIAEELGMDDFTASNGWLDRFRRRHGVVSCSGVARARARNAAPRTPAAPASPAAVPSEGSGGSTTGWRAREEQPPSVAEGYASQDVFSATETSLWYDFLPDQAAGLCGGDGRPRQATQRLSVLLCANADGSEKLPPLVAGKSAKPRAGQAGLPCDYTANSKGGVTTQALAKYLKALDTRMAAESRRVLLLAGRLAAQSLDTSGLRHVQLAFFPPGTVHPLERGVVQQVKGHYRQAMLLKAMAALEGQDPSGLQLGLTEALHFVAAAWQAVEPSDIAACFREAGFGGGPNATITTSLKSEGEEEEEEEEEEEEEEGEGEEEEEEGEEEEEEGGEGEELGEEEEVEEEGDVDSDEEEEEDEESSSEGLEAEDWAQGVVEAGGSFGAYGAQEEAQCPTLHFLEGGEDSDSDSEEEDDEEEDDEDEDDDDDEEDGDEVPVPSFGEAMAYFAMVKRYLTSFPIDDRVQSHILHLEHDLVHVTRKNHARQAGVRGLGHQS
Description: AtheNA, Ab 6.25 ug/ml.

For assay [3], the target named is T6, Jo-1 (UniProt P12081 1-509).
T6 sequence: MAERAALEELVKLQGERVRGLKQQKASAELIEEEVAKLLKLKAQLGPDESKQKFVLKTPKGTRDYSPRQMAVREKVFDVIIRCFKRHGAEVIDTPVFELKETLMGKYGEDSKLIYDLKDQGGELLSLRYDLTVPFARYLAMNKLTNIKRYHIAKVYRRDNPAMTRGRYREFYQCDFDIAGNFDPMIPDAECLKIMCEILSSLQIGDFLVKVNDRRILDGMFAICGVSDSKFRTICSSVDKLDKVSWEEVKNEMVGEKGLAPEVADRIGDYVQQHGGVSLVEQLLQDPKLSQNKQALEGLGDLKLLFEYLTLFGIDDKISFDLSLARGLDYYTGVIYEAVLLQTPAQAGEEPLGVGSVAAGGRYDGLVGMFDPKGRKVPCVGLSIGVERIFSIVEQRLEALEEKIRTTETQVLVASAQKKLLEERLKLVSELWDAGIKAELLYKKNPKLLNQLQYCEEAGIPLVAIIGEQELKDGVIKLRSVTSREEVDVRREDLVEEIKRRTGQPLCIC
The experiment in a line: AtheNA, Ab 6.25 ug/ml.

Another assay addresses T7, SSB (UniProt P05455 1-408).
T7 sequence: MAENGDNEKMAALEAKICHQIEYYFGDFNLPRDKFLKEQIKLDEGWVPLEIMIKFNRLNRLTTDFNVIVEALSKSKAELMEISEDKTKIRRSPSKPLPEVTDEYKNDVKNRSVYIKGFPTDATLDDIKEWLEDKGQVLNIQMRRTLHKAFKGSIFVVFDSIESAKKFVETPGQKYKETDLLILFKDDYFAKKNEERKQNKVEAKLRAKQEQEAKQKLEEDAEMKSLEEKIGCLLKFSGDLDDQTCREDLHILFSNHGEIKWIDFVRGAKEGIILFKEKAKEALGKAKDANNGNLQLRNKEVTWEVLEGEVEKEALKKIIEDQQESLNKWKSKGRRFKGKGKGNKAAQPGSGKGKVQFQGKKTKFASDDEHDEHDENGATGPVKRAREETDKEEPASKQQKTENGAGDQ
The experiment in a line: AtheNA, Ab 6.25 ug/ml.

Assay [4] addresses T8, Sm (Smith antigen).
T8 construct: Protein complex
Description: AtheNA, Ab 6.25 ug/ml.

The target of assay [5] is T9, SSA.
T9 construct: also called SSA (Ro)
The experiment in a line: AtheNA, Ab 6.25 ug/ml.

Assay [6] deals with T1, RNP (ribonucleoprotein). Description: AtheNA, Ab 6.25 ug/ml. This is another data set of the same source.
Assay [7] concerns the target T6, Jo-1. The experiment in a line: AtheNA, Ab 50 ug/ml.
Assay [8] addresses T8, Sm (Smith antigen). The experiment in a line: AtheNA, Ab 50 ug/ml.
The target of assay [9] is T9, SSA. Description: AtheNA, Ab 50 ug/ml.
For assay [10], the target named is T1, RNP (ribonucleoprotein). The experiment in a line: AtheNA, Ab 50 ug/ml.

B1: CH493 (antibody, V domains shown)
VH: QVRLLQYGGGVKRPGASMTISCVASGYNFNDYYIHWVRQAPGQGLELMGWIDPSGGRTDYAGAFGDRVSMYRDKSMNTLYMDLRSLRSGDTAMYYCVRNVGTAGSLLHYDHWGLGVMVTVSS
VL: EIVLTQSPATLSVSPGERVTLSCRASQSVRNNLAWYRQKRGQAPRLLIYGASTRATGIPARFSGSGSGTEFTLTISSMQSEDFAVYYCQQYNNWWTFGQGTKVEIK
notes: also called CH235.9; DH493
In turn, B1 yielded an AtheNA signal with RNP (ribonucleoprotein) [1] of 32.

B2: CH241 (antibody, V domains shown)
VH: QVQLVQSGAAVKKPGASVRVSCKASGYTFTSSHIHWVRQAPGQGPEWMGMIDPSVGRPTTAGKFQGRVTMTRDRYTSTAYMDLSSLRSEDTAVYYCARSVETTGSLLYFDYWGQGTLITVSS
VL: EIVLTQSPATLSVSPGERATLSCRASQSVRSNIAWYQQKPGQAPRLLIHGASTRATGIPGRFSGSGSGPEFTLAISSVQSEDFAVYYCQQYNDWWTFGQGTKVEIK
In assay [2], B2 returned a Kd of 0.7 nM and a koff of 0.00033 s⁻¹.

B3: CH557 (antibody, V domains shown)
VH: QVRLAQYGGGVKRLGATMTLSCVASGYTFNDYYIHWVRQAPGQGFELLGYIDPANGRPDYAGALRERLSFYRDKSMETLYMDLRSLRYDDTAMYYCVRNVGTAGSLLHYDHWGSGSPVIVSS
VL: EIVLTQSPATLSASPGERVTLTCRASRSVRNNVAWYQHKGGQSPRLLIYDASTRAAGVPARFSGSASGTEFTLAISNLESEDFTVYFCLQYNNWWTFGQGTRVDIK
notes: also called CH235.12; CH557_4A/293i
Turning to B3, the AtheNA signal with Scl-70 was 3 relative luminescence units; in the assay with Histones, 4 relative luminescence units; with Centromere B it was 11 relative luminescence units; with Jo-1 [3] it was 5 relative luminescence units; with SSB it was 5 relative luminescence units; with Sm (Smith antigen) [4], 4 relative luminescence units. Besides, the AtheNA signal with SSA [5] was 4 relative luminescence units; with RNP (ribonucleoprotein) [6], 4 relative luminescence units; with Jo-1 [7] it was 10 relative luminescence units; with Sm (Smith antigen) [8], 8 relative luminescence units; in the assay with SSA [9] it was 6 relative luminescence units; with RNP (ribonucleoprotein) [10], 10 relative luminescence units.
